Assay [1] has as its target T1, human HER3 antigen (Sino Biologicals) (human, UniProt P21860 20-643).
T1 construct: Bought soluble antigen; also called human antigen
Nature of the assay: ELISA on coated antigen. The procedure:
(§1) Antibody-antigen binding was measured by ELISA with coated antigens. Human antigens were obtained from Sino Biologicals. All other antigens were produced in-house by transient expression in CHO or HEK293 cells. Chimeric and humanized antibodies, as well as an isotype control antibody, were incubated with the coated antigens at different concentrations. After wash, bound antibodies were detected by HRP-(horse radish peroxidase)-conjugated secondary antibodies.
On the technique in general: ELISA stands for enzyme-linked immunosorbent assay.

For assay [2], the target named is T2, human EGFR antigen (Sino Biologicals) (human, UniProt P00533 25-645).
T2 construct: Bought soluble antigen; also called human antigen
As to the kind of experiment: ELISA on coated antigen. Here is the method:
as §1

Assay [3] has as its target T3, cynomolgus EGFR antigen (cynomolgus monkey, UniProt A0A2K5WK39 25-645).
T3 construct: In-house antigen; also called cynomolgus antigen
As to the kind of experiment: ELISA on coated antigen. The procedure:
as §1

The target in assay [4] is T4, mouse HER3 antigen (mouse, UniProt Q61526 20-641, limits assumed).
T4 construct: In-house antigen coated for ELISA; also called mouse antigen; murine HER3
Nature of the assay: ELISA on coated antigen. Here is the method:
as §1

Assay [5] has as its target T5, human HER4 antigen (human, UniProt Q15303 26-649, limits assumed).
T5 construct: Antigen coated for ELISA
T5 sequence (looked up): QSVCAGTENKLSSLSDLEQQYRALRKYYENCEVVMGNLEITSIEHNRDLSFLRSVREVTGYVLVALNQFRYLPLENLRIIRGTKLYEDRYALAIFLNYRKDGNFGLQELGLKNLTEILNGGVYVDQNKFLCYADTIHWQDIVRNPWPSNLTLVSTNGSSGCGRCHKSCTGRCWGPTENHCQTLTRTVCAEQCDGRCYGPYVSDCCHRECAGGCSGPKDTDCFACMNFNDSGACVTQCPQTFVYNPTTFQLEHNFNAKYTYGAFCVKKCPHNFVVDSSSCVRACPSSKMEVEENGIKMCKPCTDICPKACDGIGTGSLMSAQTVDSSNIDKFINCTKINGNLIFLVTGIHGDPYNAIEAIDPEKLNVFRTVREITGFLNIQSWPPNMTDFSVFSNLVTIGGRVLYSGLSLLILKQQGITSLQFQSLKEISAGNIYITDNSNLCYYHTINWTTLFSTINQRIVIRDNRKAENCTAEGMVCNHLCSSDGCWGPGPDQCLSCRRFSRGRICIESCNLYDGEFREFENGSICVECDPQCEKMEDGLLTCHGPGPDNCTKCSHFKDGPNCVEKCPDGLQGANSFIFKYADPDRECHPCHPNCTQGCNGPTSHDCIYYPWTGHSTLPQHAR
Nature of the assay: ELISA on coated antigen. The procedure:
as §1

The target in assay [6] is T6, mouse EGFR antigen (mouse, UniProt Q01279 25-647, limits assumed).
T6 construct: In-house antigen coated for ELISA; also called mouse antigen; murine EGFR
Nature of the assay: ELISA on coated antigen. Here is the method:
as §1

The target of assay [7] is T7, mouse HER2 antigen (mouse, UniProt P70424 23-653, limits assumed).
T7 construct: In-house antigen coated for ELISA; also called mouse antigen; murine HER2
As to the kind of experiment: ELISA on coated antigen. The procedure:
as §1

Assay [8] concerns the target T8, murine HER4 antigen (mouse, UniProt Q61527 26-652, limits assumed).
T8 construct: In-house antigen coated for ELISA; also called mouse HER4
T8 sequence (looked up): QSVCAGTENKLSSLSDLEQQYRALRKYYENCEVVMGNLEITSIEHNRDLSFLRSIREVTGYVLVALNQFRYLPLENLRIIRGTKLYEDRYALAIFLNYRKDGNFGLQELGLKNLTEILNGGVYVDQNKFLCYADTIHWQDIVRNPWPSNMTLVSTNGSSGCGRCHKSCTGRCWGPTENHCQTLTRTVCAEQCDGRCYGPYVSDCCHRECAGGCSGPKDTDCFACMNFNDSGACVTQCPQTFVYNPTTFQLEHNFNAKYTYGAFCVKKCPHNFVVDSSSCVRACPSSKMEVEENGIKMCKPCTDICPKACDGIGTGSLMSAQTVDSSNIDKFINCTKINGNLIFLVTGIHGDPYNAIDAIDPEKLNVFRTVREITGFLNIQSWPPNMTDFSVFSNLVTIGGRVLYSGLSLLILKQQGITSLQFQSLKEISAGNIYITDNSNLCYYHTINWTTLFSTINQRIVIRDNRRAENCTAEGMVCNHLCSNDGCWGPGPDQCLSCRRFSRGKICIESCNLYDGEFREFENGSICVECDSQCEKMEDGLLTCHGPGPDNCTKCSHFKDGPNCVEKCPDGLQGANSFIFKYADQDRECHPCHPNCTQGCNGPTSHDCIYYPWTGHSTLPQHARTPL
As to the kind of experiment: ELISA on coated antigen. Here is the method:
as §1

The target of assay [9] is T9, cynomolgus HER3 antigen (cynomolgus monkey, UniProt G7PIG5 20-643).
T9 construct: In-house antigen; also called cynomolgus antigen
As to the kind of experiment: ELISA on coated antigen. Here is the method: as §1

Assay [10] has as its target cynomolgus HER2 antigen (cynomolgus monkey). Nature of the assay: SPR (ProteOn XPR36), IgG captured by anti-human Fc, soluble monovalent antigen, 1:1 fit.
For assay [11], the target named is T2, human EGFR antigen (Sino Biologicals). As to the kind of experiment: ELISA, coated hu EGFR. Here is the method: as §1
In assay [12] the target is T10, human HER2 antigen (Sino Biologicals) (human, UniProt P04626 23-652).
T10 construct: Bought soluble antigen; also called human antigen
Nature of the assay: SPR (ProteOn XPR36), IgG captured by anti-human Fc, soluble monovalent antigen, 1:1 fit. The essentials:
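Whole IgG captured on a mouse anti-human Fc surface; monovalent antigen injected at 50 μl/min as threefold serial dilutions from 100 nM stock.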

The target of assay [13] is T4, mouse HER3 antigen. As to the kind of experiment: ELISA, coated mu HER3. Summed up: (§2)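 In this plate-based binding format, varying antibody concentrations are incubated on immobilized antigen. Bound antibody is then detected after a wash using HRP-labelled secondary reagents.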
Assay [14] has as its target T7, mouse HER2 antigen. As to the kind of experiment: ELISA, coated mu HER2. Summed up:
as §2

For assay [15], the target named is T9, cynomolgus HER3 antigen. Nature of the assay: ELISA, coated cy HER3. Summed up:
as §2

In assay [16] the target is T6, mouse EGFR antigen. As to the kind of experiment: ELISA, coated mu EGFR. Summed up: as §2
The target of assay [17] is T1, human HER3 antigen (Sino Biologicals). As to the kind of experiment: ELISA, coated hu HER3. The essentials:
as §2

Assay [18] concerns the target T3, cynomolgus EGFR antigen. Nature of the assay: ELISA, coated cy EGFR. Here is the method: as §1
Assay [19] addresses T5, human HER4 antigen. Nature of the assay: ELISA, coated hu HER4. The essentials:
as §2

In assay [20] the target is T8, murine HER4 antigen. As to the kind of experiment: ELISA, coated mu HER4. Summed up: as §2

T9 sequence (G7PIG5 entry or part of it): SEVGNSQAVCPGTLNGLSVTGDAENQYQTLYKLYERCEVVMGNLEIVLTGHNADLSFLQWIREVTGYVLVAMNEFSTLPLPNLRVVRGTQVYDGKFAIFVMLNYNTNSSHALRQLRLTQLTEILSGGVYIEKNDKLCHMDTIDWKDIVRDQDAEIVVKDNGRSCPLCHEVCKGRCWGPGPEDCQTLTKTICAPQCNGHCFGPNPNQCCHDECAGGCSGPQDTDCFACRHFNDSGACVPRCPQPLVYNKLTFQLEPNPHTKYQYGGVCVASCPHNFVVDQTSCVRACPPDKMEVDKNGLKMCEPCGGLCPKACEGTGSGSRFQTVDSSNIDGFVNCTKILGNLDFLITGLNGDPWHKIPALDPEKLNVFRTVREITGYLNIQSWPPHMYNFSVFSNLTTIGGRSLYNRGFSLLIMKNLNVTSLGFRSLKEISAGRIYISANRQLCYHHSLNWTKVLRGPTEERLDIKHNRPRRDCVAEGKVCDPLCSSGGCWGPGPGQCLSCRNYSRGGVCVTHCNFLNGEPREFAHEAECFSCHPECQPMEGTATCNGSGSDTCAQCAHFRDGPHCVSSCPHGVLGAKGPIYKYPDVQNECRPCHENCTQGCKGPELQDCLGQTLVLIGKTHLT
T4 sequence (Q61526 20-641 limits assumed): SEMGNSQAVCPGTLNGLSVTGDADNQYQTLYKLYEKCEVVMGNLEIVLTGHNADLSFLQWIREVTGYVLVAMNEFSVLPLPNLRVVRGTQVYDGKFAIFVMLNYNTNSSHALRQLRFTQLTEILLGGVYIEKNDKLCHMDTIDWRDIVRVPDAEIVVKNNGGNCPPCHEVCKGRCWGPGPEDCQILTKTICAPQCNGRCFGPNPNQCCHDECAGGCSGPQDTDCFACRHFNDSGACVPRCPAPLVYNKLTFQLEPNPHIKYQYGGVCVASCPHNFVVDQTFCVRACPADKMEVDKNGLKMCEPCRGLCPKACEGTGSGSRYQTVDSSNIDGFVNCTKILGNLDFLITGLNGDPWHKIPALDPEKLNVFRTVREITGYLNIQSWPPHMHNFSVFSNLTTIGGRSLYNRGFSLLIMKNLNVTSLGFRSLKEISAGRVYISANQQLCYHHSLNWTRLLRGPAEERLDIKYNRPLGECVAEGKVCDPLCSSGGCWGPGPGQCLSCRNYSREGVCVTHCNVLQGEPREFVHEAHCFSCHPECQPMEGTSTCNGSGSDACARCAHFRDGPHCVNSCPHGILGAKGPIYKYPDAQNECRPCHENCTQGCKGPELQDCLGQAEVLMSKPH
T7 sequence (P70424 23-653 limits assumed): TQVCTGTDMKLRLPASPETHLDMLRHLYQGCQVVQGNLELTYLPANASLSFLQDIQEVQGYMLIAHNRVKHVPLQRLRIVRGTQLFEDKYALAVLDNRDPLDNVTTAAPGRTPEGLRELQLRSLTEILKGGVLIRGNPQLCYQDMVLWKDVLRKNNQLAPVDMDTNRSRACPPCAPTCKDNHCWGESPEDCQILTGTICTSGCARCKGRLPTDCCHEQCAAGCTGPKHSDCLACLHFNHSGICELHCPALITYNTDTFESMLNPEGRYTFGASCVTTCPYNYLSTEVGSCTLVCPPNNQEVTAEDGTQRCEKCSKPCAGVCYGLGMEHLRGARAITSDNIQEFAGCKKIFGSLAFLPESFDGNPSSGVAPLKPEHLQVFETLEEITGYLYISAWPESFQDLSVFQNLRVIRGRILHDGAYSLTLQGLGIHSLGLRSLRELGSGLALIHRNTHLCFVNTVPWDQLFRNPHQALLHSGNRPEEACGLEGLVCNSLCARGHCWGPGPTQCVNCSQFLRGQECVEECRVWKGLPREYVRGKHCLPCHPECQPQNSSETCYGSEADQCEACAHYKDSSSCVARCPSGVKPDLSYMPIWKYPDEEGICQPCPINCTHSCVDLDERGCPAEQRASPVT

B1: humanized anti-HER2 antibody 11249 (antibody, V domains shown)
VH: QVQLVQSGAEVKKPGASVKVSCKASGYTFTSHWMHWVRQAPGQGLEWMGNINPSSGGTNYNEKFKSRVTMTVDTSTSTVYMELSSLRSEDTAVYYCARAYYDFSWFVYWGQGTLVTVSS
VL: DIQMTQSPSSLSASVGDRVTITCRSSQDISNYLNWYQQKPGKAPKLLMYISRLHSGVPSRFSGSGSGTDYTFTISSLQPEDIATYYCQQGNTLPLTFGGGTKVEIK
Regarding B1, the binding result (in assay [1]; in assay [2]; with cynomolgus EGFR antigen [3]; with mouse HER3 antigen [4]; with human HER4 antigen [5]; with mouse EGFR antigen [6]) was “no binding (tested: 40 nM antibody (negative: OD<0.1))” in each case. The binding result with mouse HER2 antigen [7], with murine HER4 antigen [8] and with cynomolgus HER3 antigen [9] was “no binding (tested: 40 nM antibody (negative: OD<0.1))” each time. In assay [10], the Kd – broadly, the equilibrium constant for the complex coming apart – worked out at 2.5 nM. In addition, in assay [10], the koff – broadly, a measure of how fast the partners let go of each other – is 0.00038 s⁻¹. Besides, in [10], the kon (commonly a measure of how fast the partners come together) came to 150000 M⁻¹ s⁻¹.

B2: chimeric anti-HER2 antibody 4517 (antibody, V domains shown)
VH: EVQLVESGGDLVKPGGSLKLSCAASGFTFSSYGMSWVRLTPDKRLEWVATISGGGSYTYYPDSVKGRFTISRDIAKSTLYLQMSSLKSEDTAVYYCARKGNYGNYGKLAYWGQGTSVTVS
VL: DIQMTQSPASLSVSVGETVTITCRASENIYSNLAWYQQEQGKSPQLLVYAATNLADGVPSRFSGSGSGTQYSLKINSLQSEDFGSYYCQHFWGTPWTFGGGTKLEIKR
notes: light chain entry is full length
Consider B2, for which the binding result (in assay [11]; in the assay with mouse HER3 antigen [13]; with mouse HER2 antigen [14]; with cynomolgus HER3 antigen [15]; with mouse EGFR antigen [16]; in assay [17]) was “no binding (tested: 40 nM)” in each case. For the same molecule, the binding result with cynomolgus EGFR antigen [18], with human HER4 antigen [19] and with murine HER4 antigen [20] was “no binding (tested: 40 nM)” throughout. Further, the Kd came to 1.1 nM in assay [12] and 3.7 nM in [10]. Further, the koff is 0.00029 s⁻¹ in assay [12] and 0.00086 s⁻¹ in assay [10]. Also, the kon in assay [12] is 260000 M⁻¹ s⁻¹; in assay [10], 230000 M⁻¹ s⁻¹.

For the origin of these results see US20170165365A1 (SYMPHOGEN A S, published 2017).
